Data set [1] deals with T1, AdeR (Paenibacillus sabinae T27, UniProt X4ZCB7 1-417).
T1 sequence: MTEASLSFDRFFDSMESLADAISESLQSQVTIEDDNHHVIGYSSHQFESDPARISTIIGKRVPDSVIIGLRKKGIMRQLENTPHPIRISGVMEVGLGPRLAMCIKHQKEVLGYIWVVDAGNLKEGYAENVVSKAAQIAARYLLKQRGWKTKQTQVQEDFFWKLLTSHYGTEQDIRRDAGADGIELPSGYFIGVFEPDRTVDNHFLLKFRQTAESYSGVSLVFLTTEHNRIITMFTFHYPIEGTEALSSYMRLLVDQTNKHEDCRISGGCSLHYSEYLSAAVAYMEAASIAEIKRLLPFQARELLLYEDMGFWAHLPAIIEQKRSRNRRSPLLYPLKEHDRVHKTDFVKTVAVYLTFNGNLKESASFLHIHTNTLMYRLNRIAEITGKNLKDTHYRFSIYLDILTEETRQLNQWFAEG
Kind of data set: EMSA; AdeR 100-600 nM; legend misprints 'mutated GlnR-binding site'; EMSA: 20 ul, 1 ug poly[d(A-T)], 0.3 nM probe, 30 min, 25 C; binding buffer (given for protein dialysis) 20 mM HEPES pH 7.6, 1 mM EDTA, 10 mM (NH4)2SO4, 1 mM DTT, 0.2% Tween 20, 30 mM KCl. SPR: SA chip, 250 RU DNA, GlnR 0-500 nM with or without 25 nM GS. The note with it: protein: recombinant; tags: N-His6; label: 3' DIG (Methods); blunt.

Data set [2] deals with T2, GlnR (Paenibacillus sabinae T27, UniProt X4ZZY3 1-136).
T2 sequence: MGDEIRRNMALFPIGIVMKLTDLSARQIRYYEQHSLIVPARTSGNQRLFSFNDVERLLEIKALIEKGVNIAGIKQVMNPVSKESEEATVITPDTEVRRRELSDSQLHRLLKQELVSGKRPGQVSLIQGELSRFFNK
Kind of data set: EMSA; GlnR 4-1024 nM; EMSA: 20 ul, 1 ug poly[d(A-T)], 0.3 nM probe, 30 min, 25 C; binding buffer (given for protein dialysis) 20 mM HEPES pH 7.6, 1 mM EDTA, 10 mM (NH4)2SO4, 1 mM DTT, 0.2% Tween 20, 30 mM KCl. SPR: SA chip, 250 RU DNA, GlnR 0-500 nM with or without 25 nM GS. The settings on record: protein: recombinant; tags: N-His6; chain copies: 2; label: 3' DIG (Methods); blunt.

Data set [3] has as its target T2, GlnR. Kind of data set: SPR; GlnR alone, 0-500 nM; affinity significantly higher than site II; EMSA: 20 ul, 1 ug poly[d(A-T)], 0.3 nM probe, 30 min, 25 C; binding buffer (given for protein dialysis) 20 mM HEPES pH 7.6, 1 mM EDTA, 10 mM (NH4)2SO4, 1 mM DTT, 0.2% Tween 20, 30 mM KCl. SPR: SA chip, 250 RU DNA, GlnR 0-500 nM with or without 25 nM GS. The note with it: protein: recombinant; tags: N-His6; chain copies: 2; label: 5' biotin on capture linker S3; 3' overhang 20 nt on strand 2, annealed to capture linker (strand 3).

In data set [4] the target is T1, AdeR. Kind of data set: EMSA; AdeR 100-600 nM; EMSA: 20 ul, 1 ug poly[d(A-T)], 0.3 nM probe, 30 min, 25 C; binding buffer (given for protein dialysis) 20 mM HEPES pH 7.6, 1 mM EDTA, 10 mM (NH4)2SO4, 1 mM DTT, 0.2% Tween 20, 30 mM KCl. SPR: SA chip, 250 RU DNA, GlnR 0-500 nM with or without 25 nM GS. The note with it: protein: recombinant; tags: N-His6; label: 3' DIG (Methods); blunt.

B1: ald1 promoter 40-bp mutated AdeR site (aldP1M) (dsDNA)
DNA 1: GAATGAAAAACTGACCTTGGATCCGTGATAAAACACAATC
DNA 2: GATTGTGTTTTATCACGGATCCAAGGTCAGTTTTTCATTC
Consider B1, for which the binding result in the data set with AdeR [1] is recorded as “no binding”.

B2: nif promoter GlnR site II EMSA probe (nifR2) (dsDNA)
DNA 1: TTTTCAAGAAAGGTTGGAGTCAGGTTAACTGACACGTCGGATG
DNA 2: CATCCGACGTGTCAGTTAACCTGACTCCAACCTTTCTTGAAAA
B2: the binding result with GlnR [2] is reported as “binds”.

B3: SPR probe GlnR site I (TS1) (dsDNA)
DNA 1: ATACATATGTGTAATGTAATCTGACATTTGTTTTGACGA
DNA 2: TCGTCAAAACAAATGTCAGATTACATTACACATATGTATCCTACCCTACGTCCTCCTGC
DNA 3: GCAGGAGGACGTAGGGTAGG
On to B3, for which the binding result with GlnR [3] is recorded as “binds”.

B4: nif promoter GlnR site I EMSA probe (nifR1) (dsDNA)
DNA 1: AACGGAAACATGATACATATGTGTAATGTAATCTGACATTTGT
DNA 2: ACAAATGTCAGATTACATTACACATATGTATCATGTTTCCGTT
In the case of B4, the binding result with GlnR [2] is on record as “binds”.

B5: ald1 promoter 40-bp AdeR site (aldP1) (dsDNA)
DNA 1: GAATGAAAAACTGACCTTCTCATTGTGATAAAACACAATC
DNA 2: GATTGTGTTTTATCACAATGAGAAGGTCAGTTTTTCATTC
Turning to B5, the binding result in the data set with AdeR [4] is reported as “binds”.
